Legend:
[1] = target: T1, twin strep-tagged human ROR2 extracellular domain (human, UniProt Q01974 34-403); assay: ELISA on coated twin-strep tagged human ROR2; anti-human Fcγ F(ab')2-HRP; absorbance 490 nm
T1 construct: extracellular domain; Expressed in HEK293T; also called ROR2-ECD-TwinStrep
Experimental: Each well of a 96-well plate was coated with 100 μL of 2 μg/mL strep-tagged human ROR1 (from Example 5) in 0.1 M bicarbonate coating buffer (pH 9.6), and incubated for 12 h at 4° C. A second 96-well plate was likewise prepared with twin-strep tagged human ROR2 (from Example 5).
HRP-conjugated F(ab′)₂ anti-human FC-gamma (Jackson Immunoresearch, 109-036-008) was then added at a 1:20′000 dilution, 100 μl per well, and incubated for 1 h at 37° C. prior to detection using an Spark 10M plate reader (Tecan).

[2] = target: T2, human ROR1, full length, on cells (human, UniProt Q01973 30-937); assay: cell-based or functional assay
T2 sequence (Q01973 30-937): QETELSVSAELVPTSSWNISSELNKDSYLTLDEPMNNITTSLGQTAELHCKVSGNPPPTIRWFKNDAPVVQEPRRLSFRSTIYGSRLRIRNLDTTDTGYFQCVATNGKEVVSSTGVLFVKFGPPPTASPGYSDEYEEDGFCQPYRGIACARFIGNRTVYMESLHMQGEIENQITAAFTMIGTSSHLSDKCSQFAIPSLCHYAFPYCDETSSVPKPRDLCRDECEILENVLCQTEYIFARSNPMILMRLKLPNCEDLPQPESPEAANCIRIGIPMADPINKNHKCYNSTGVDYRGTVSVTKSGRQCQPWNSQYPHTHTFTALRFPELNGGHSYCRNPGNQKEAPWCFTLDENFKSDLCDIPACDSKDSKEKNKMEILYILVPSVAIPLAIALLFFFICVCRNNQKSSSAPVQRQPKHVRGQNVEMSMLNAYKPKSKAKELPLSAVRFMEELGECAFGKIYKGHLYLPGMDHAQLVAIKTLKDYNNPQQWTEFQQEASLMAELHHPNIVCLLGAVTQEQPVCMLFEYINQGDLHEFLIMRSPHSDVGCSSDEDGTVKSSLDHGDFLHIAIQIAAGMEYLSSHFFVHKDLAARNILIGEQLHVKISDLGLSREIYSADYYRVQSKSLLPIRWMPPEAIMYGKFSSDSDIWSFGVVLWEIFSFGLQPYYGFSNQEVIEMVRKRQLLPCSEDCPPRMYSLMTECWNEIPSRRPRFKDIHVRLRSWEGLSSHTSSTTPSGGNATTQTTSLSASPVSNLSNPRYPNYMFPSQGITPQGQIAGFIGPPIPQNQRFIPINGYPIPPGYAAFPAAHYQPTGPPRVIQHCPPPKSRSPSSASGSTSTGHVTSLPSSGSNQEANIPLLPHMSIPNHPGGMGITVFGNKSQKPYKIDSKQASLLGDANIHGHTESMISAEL

[3] = target: T2, human ROR1, full length, on cells; assay: cell-based or functional assay; remark: listed apart in the source
[4] = target: T3, StrepII-tagged human ROR1 extracellular domain (human, UniProt Q01973 30-406); assay: SPR (Biacore T200); mAb captured by goat anti-human Fcγ IgG on CM5; ROR1-strep as analyte (Example 8)
T3 construct: extracellular domain; also called ROR1-strep; strep-tagged human ROR1
T3 sequence (Q01973 other isoform, or with tags, fused parts or gaps): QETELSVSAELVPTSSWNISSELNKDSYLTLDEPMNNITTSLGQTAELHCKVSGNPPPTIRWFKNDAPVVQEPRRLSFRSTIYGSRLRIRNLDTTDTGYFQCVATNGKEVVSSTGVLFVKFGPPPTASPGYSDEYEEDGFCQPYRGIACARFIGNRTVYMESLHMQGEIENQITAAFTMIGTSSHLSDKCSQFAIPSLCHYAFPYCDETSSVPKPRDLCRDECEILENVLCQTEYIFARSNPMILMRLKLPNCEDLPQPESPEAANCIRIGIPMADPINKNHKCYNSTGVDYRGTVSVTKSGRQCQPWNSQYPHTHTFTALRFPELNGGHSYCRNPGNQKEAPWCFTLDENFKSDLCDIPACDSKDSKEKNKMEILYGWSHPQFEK
Experimental: Affinity screening was then performed to select the best binders. Affinities were determined using a Biacore T200 instrument (GE Healthcare, Buckinghamshire, UK) and data was evaluated using Biacore Evaluation T200 V2.0 software. To capture mAbs, goat α-human Fc-gamma-specific IgG (Jackson ImmunoResearch, #109-005-098) was covalently immobilized on a CM5 chip (GE Healthcare, #BR-1005-30).

[5] = target: T3, StrepII-tagged human ROR1 extracellular …; assay: SPR (Biacore T200), mAb captured by anti-human Fc-gamma IgG on CM5, ROR1-strep as analyte

T1 sequence (Q01974 34-403): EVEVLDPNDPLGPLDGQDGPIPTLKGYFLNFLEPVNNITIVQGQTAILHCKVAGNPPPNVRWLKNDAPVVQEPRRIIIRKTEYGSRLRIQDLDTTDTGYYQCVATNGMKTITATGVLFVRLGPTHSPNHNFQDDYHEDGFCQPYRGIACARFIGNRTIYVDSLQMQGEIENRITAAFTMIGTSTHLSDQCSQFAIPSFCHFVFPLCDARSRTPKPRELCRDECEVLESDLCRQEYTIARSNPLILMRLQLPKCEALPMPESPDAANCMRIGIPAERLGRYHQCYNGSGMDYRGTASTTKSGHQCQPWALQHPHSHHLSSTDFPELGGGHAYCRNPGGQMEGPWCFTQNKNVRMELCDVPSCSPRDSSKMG

Binder | binding result [1] | Kd [4] [nM] | koff [4] [s⁻¹] | kon [4] [M⁻¹ s⁻¹] | Kd [5] [nM] | other results
ERR1-324 (mAb034) IgG with C-terminal sortase and Strep tags (antibody, V domains shown, Human IgG1 constant regions, kappa light chain) VH: QSLEESGGGLVQPGESLTLTCTVSGFSLSRNGMTWVRQAPGKGLEWIGIITSSGDKYYATWAKGRFTISKTSSTTVDLKMTSLTTEDTATYFCARGTVSSDIWGPGTLVTISS VL: ELVLTQTPSPVSAAVGGTVTINCQASQSVYGNNELAWYQQKPGQPPKLLIYRASILTSGVPSRFKGSGSGTQFTLTISNVQREDAATYYCLGGYVSQSYRAAFGGGTELEIL | no binding (tested: about 500 ng/ml) |  |  |  |  | 
ERR1-Top43-G5-PNU (adc204) antibody drug conjugate (other, Gly5-EDA-PNU joined by sortase to the C-terminal G5SLPETG tag of the full light chain; Gly5-EDA-PNU joined by sortase to the C-terminal LPETG tag of the full heavy chain) VH: QSLEESGGRLVTPGTPLTLTCTVSGFSLSSYWMSWVRQAPGKGLEWIGAIYGSGNTYYASWAKGRFTISKTSTTVDLKITSPTTEDTATYFCARDVHSTATDLWGPGTLVTISS VL: SYELTQLPSVSVSLGQTARITCGGNNIGSKAVNWYQQKPGLAPGLLIYNDDERPSGVPDRFSGSNSGDTATLTISGAQAGDEADYYCQLWDSSAGAYVFGGGTQLTVTG |  |  |  |  |  | IC50 of in vitro cell killing, HS 578T cells (hROR1 status positive) [2]: 707 ng/mL; IC50 of in vitro cell killing, MDA-MD-468 cells (hROR1 status positive) [2]: 143 ng/mL
HuXBR1-402(19)-G5-PNU (Adc460) (other, Gly5-EDA-PNU joined by sortase to the C-terminal G5SLPETG tag of the full light chain; Gly5-EDA-PNU joined by sortase to the C-terminal LPETG tag of the full heavy chain) VH: QVQLQESGPGLVKPSETLSLTCTVSGFDISSYYMSWVRQPPGNGLEWIGAIGISGNAYYASWAKSRVTISRDTSKNQFSLKLSSVTAADTAVYYCARDHPTYGMDLWGPGTLVTVSS VL: SYELTQPPSVSVAPGKTARITCEGNNIGSKAVHWYQQKPGQAPVLVIYDDDERPSGIPERFSGSNSGNTATLTISRVEAGDEADYYCQVWDSSAYVFGGGTKLTVLG |  |  |  |  |  | IC50 values on 697 cells (in vitro cell killing) [3]: 91.7 ng/mL
HuXBR1-402(26)-G5-PNU (Adc461) (other, Gly5-EDA-PNU joined by sortase to the C-terminal G5SLPETG tag of the full light chain; Gly5-EDA-PNU joined by sortase to the C-terminal LPETG tag of the full heavy chain) VH: QVQLQESGPGLVKPSETLSLTCTVSGFDISSYYMSWVRQPPGNGLEWIGAIGISGNAYYASWAKSRVTISRDTSKNQFSLKLSSVTAADTAVYYCARDHPTYGMDLWGPGTLVTVSS VL: SYELTQPLSVSVALGQTARITCEGNNIGSKAVHWYQQKPGLAPVLVIYDDDERPSGIPERFSGSNSGNTATLTISRAQAGDEADYYCQVWDSSAYVFGGGTQLTVLG |  |  |  |  |  | IC50 values on 697 cells (in vitro cell killing) [3]: 93.9 ng/mL
HuXBR1-402(15) (mAb290) (antibody, human IgG1, V domains shown, Humanized IgG (human IgG1 constant regions, lambda)) VH: QVQLQESGPGLVKPSETLSLTCTVSGFDISSYYMSWVRQPPGKGLEWIGAIGISGNAYYASWAKSRVTISRDTSKNQFSLKLSSVTAADTAVYYCARDHPTYGMDLWGPGTLVTVSS VL: SYELTQPPSVSVAPGKTARITCEGNNIGSKAVHWYQQKPGQAPVLVIYDDDERPSGIPERFSGSNSGNTATLTISRVEAGDEADYYCQVWDSSAYVFGGGTKLTVLG |  | 3.5 | 0.00394 | 1.11e+06 | 3.55 | 
HuXBR1-402(19) (mAb295) (antibody, human IgG1, V domains shown, Humanized IgG (human IgG1 constant regions, lambda)) VH: QVQLQESGPGLVKPSETLSLTCTVSGFDISSYYMSWVRQPPGNGLEWIGAIGISGNAYYASWAKSRVTISRDTSKNQFSLKLSSVTAADTAVYYCARDHPTYGMDLWGPGTLVTVSS VL: SYELTQPPSVSVAPGKTARITCEGNNIGSKAVHWYQQKPGQAPVLVIYDDDERPSGIPERFSGSNSGNTATLTISRVEAGDEADYYCQVWDSSAYVFGGGTKLTVLG |  | 3 | 0.00332 | 1.11e+06 | 2.98 | 
HuXBR1-402(3) (mAb288) (antibody, human IgG1, V domains shown, Humanized IgG (human IgG1 constant regions, lambda)) VH: QVQLRESGPGLVKPSETLSLTCTVSGFDISSYYMSWVRQPPGKGLEWIGAIGISGNAYYASWAKSRVTISRDTSKNQFSLKLSSVTAADTAVYYCARDHPTYGMDLWGPGTLVTVSS VL: SYELTQPLSVSVALGQTARITCEGNNIGSKAVHWYQQKPGQAPVLVIYDDDERPSGIPERFSGSNSGNTATLTISRAQAGDEADYYCQVWDSSAYVFGGGTKLTVLG |  | 3.2 | 0.00375 | 1.19e+06 | 3.16 | 

Further lines, with some results ahead:

binding result [1] | Kd [4] [nM] | koff [4] [s⁻¹] | kon [4] [M⁻¹ s⁻¹] | Kd [5] [nM] | Binder | other results
no binding (tested: about 500 ng/ml) |  |  |  |  | XBR1-402 (mAb031) IgG with C-terminal sortase and Strep tags (antibody, V domains shown, Human IgH-gamma1 and IgL-lambda constant regions) VH: QEQQKESGGGLFKPTDTLTLTCTASGFDISSYYMSWVRQAPGNGLEWIGAIGISGNAYYASWAKSRSTITRNTNLNTVTLKMTSLTAADTATYFCARDHPTYGMDLWGPGTLVTVSS VL: SYELTQLPSVSVSLGQTARITCEGNNIGSKAVHWYQQKPGLAPGLLIYDDDERPSGVPDRFSGSNSGDTATLTISGAQAGDEADYYCQVWDSSAYVFGGGTQLTVTG | 
no binding (tested: about 500 ng/ml) |  |  |  |  | ERR1-306 (mAb033) IgG with C-terminal sortase and Strep tags (antibody, V domains shown, Human IgG1 constant regions) VH: QEQLKESGGGLVQPGGSLKLSCKASGFDLSNYGVSWVRQAPGKGLEWIGYIDPTFDYTYYASWVNGRFSISRENTQNTVSLQINSLTPADTATYFCARWVYGVDDYGDGNWLDLWGQGTLVTISS VL: QFVLTQSPSVSAALGASAKLTCTLSSAHKTYTIDWYQQQQGEAPRYLMELKSDGSYTKGTGVPDRFSGSSSGADRYLIIPSVQADDEADYYCGTDYSGGYVFGGGTQLTVTG | 
no binding (tested: about 500 ng/ml) |  |  |  |  | ERR1-Top43 (mAb036) IgG with C-terminal sortase and Strep tags (antibody, V domains shown, Human IgG1 constant regions) VH: QSLEESGGRLVTPGTPLTLTCTVSGFSLSSYWMSWVRQAPGKGLEWIGAIYGSGNTYYASWAKGRFTISKTSTTVDLKITSPTTEDTATYFCARDVHSTATDLWGPGTLVTISS VL: SYELTQLPSVSVSLGQTARITCGGNNIGSKAVNWYQQKPGLAPGLLIYNDDERPSGVPDRFSGSNSGDTATLTISGAQAGDEADYYCQLWDSSAGAYVFGGGTQLTVTG | 
no binding (tested: about 500 ng/ml) |  |  |  |  | ERR1-301 (mAb027) IgG with C-terminal sortase and Strep tags (antibody, V domains shown, Human IgG1 constant regions) VH: QEQLEESGGGLVTPGGSLTLTCTASGFTISTYHMSWVRQAPGKGLEWIGSIYAGSGSTYYASWVNGRFTISSNTTQNTVSLQMNSLTVADTATYFCARDHPSYGMDLWGPGTLVTVSS VL: SYELTQLPSVSVSLGQTARITCGGNSIGSKAVNWYQQKPGLAPGLLIYDDDERPSGVPDRFSASNSGDTATLTISGAQAEDEADYYCQLWDSSAVAYVFGGGTQLTVTG | 
no binding (tested: about 500 ng/ml) |  |  |  |  | ERR1-403 (mAb035) IgG with C-terminal sortase and Strep tags (antibody, V domains shown, Human IgG1 constant regions) VH: QEQLKESGRGLVQPGGSLKLSCKASGFDFSGWYMTWVRQAPGKGLEWIGTIGTTKGRTYYASWVNGRFTISSNAQNTVDLQMNSLTAADRATYFCVRGSDYFDLWGPGTLVTISS VL: SYELTQLPSVSVSLGQTARITCGGNSIGSKAVNWYQQKPGLAPGLLIYDDDERPSGVPARFSGSNSGDTATLTISGAQAGDEADYYCQLWDSSAGAYVFGGGTQLTVTG | 
 | 2.1 | 0.00276 | 1.29e+06 | 2.14 | HuXBR1-402(8) (mAb289) (antibody, human IgG1, V domains shown, Humanized IgG (human IgG1 constant regions, lambda)) VH: QVQLQESGPGLVKPSETLSLTCTVSGFDISSYYMSWVRQPPGKGLEWIGAIGISGNAYYASWAKSRVTISRDTSKNQFSLKLSSVTAADTAVYYCARDHPTYGMDLWGPGTLVTVSS VL: SYELTQPPSVSVSPGQTAIITCEGNNIGSKAVHWYQQKPGLSPVLVIYDDDERPSGIPERFSGSNSGNTATLTVSGTQDMDEADYYCQVWDSSAYVFGGGTKLTVLG | 
 | 3.1 | 0.00328 | 1.05e+06 | 3.13 | HuXBR1-402(26) (mAb296) (antibody, human IgG1, V domains shown, Humanized IgG (human IgG1 constant regions, lambda)) VH: QVQLQESGPGLVKPSETLSLTCTVSGFDISSYYMSWVRQPPGNGLEWIGAIGISGNAYYASWAKSRVTISRDTSKNQFSLKLSSVTAADTAVYYCARDHPTYGMDLWGPGTLVTVSS VL: SYELTQPLSVSVALGQTARITCEGNNIGSKAVHWYQQKPGLAPVLVIYDDDERPSGIPERFSGSNSGNTATLTISRAQAGDEADYYCQVWDSSAYVFGGGTQLTVLG | 
 | 3.4 | 0.00322 | 960000 | 3.34 | HuXBR1-402(17) (mAb291) (antibody, human IgG1, V domains shown, Humanized IgG (human IgG1 constant regions, lambda)) VH: QVQLRESGPGLVKPSETLSLTCTVSGFDISSYYMSWVRQPPGKGLEWIGAIGISGNAYYASWAKSRVTISRDTSKNQFSLKLSSVTAADTAVYYCARDHPTYGMDLWGPGTLVTVSS VL: SYELTQPPSVSVAPGKTARITCEGNNIGSKAVHWYQQKPGQAPVLVIYDDDERPSGIPERFSGSNSGNTATLTISRVEAGDEADYYCQVWDSSAYVFGGGTKLTVLG | 

Reference: patent publication US20220153839A1 (NBE THERAPEUTICS, published 2022)
